Source: PMC3919604, “Single-molecule characterization of Fen1 and Fen1/PCNA complexes acting on flap substrates” (Nucleic Acids Research, 2013)
Values belong to the molecule of their own block, whether it stands above or below them.

Columns and labels:
[1] = tested on: Fen1 (flap endonuclease 1) (Sulfolobus solfataricus); test: smFRET; conditions: 10 mM Ca2+, no PCNA; 10 mM Ca2+ (prevents cleavage), 20 C / room temperature; binding buffer, salt and pH not in held text (hybridization buffer 20 mM Tris-HCl pH 7.8, 25 mM NaCl)
[2] = tested on: Fen1 (flap endonuclease 1);PCNA heterotrimer (PCNA1/PCNA2/PCNA3) (Sulfolobus solfataricus;Sulfolobus solfataricus); test: smFRET; conditions: Fen1 titrated with 2 uM PCNA, 10 mM Ca2+; 10 mM Ca2+ (prevents cleavage), 20 C / room temperature; binding buffer, salt and pH not in held text (hybridization buffer 20 mM Tris-HCl pH 7.8, 25 mM NaCl)
[3] = tested on: Fen1 (flap endonuclease 1) (Sulfolobus solfataricus); test: ensemble FRET; conditions: 10 mM Ca2+, no PCNA, 20 C; 10 mM Ca2+ (prevents cleavage), 20 C / room temperature; binding buffer, salt and pH not in held text (hybridization buffer 20 mM Tris-HCl pH 7.8, 25 mM NaCl)
[4] = tested on: Fen1 (flap endonuclease 1);PCNA heterotrimer (PCNA1/PCNA2/PCNA3) (Sulfolobus solfataricus;Sulfolobus solfataricus); test: ensemble FRET; conditions: Fen1 titrated with 2 uM PCNA, 10 mM Ca2+, 20 C; 10 mM Ca2+ (prevents cleavage), 20 C / room temperature; binding buffer, salt and pH not in held text (hybridization buffer 20 mM Tris-HCl pH 7.8, 25 mM NaCl)
[5] = tested on: Fen1 (flap endonuclease 1);PCNA heterotrimer (PCNA1/PCNA2/PCNA3) (Sulfolobus solfataricus;Sulfolobus solfataricus); test: PIFE (Cy3); conditions: PCNA titrated with 5 uM Fen1, 10 mM Ca2+; 10 mM Ca2+ (prevents cleavage), 20 C / room temperature; binding buffer, salt and pH not in held text (hybridization buffer 20 mM Tris-HCl pH 7.8, 25 mM NaCl)
[6] = tested on: Fen1 (flap endonuclease 1);PCNA12 heterodimer (PCNA1/PCNA2) (Sulfolobus solfataricus;Sulfolobus solfataricus); test: PIFE (Cy3); conditions: PCNA12 titrated with 5 uM Fen1, 10 mM Ca2+; 10 mM Ca2+ (prevents cleavage), 20 C / room temperature; binding buffer, salt and pH not in held text (hybridization buffer 20 mM Tris-HCl pH 7.8, 25 mM NaCl)
[7] = tested on: Fen1 (flap endonuclease 1);PCNA-Cy5 heterotrimer (Sulfolobus solfataricus;Sulfolobus solfataricus); test: intermolecular FRET; conditions: PCNA-Cy5 titrated with 5 uM Fen1; substrate of the Kd fit not explicitly stated; 10 mM Ca2+ (prevents cleavage), 20 C / room temperature; binding buffer, salt and pH not in held text (hybridization buffer 20 mM Tris-HCl pH 7.8, 25 mM NaCl)
[8] = tested on: Fen1 (flap endonuclease 1) (Sulfolobus solfataricus); test: FRET titration; conditions: 10 mM Ca2+, no PCNA; 10 mM Ca2+ (prevents cleavage), 20 C / room temperature; binding buffer, salt and pH not in held text (hybridization buffer 20 mM Tris-HCl pH 7.8, 25 mM NaCl)
[9] = tested on: Fen1 (flap endonuclease 1);PCNA heterotrimer (PCNA1/PCNA2/PCNA3) (Sulfolobus solfataricus;Sulfolobus solfataricus); test: FRET titration; conditions: Fen1 titrated with 2 uM PCNA, 10 mM Ca2+; 10 mM Ca2+ (prevents cleavage), 20 C / room temperature; binding buffer, salt and pH not in held text (hybridization buffer 20 mM Tris-HCl pH 7.8, 25 mM NaCl)
[10] = target: Fen1 (Saccharolobus solfataricus) (UniProt Q980U8); conditions: cited from earlier work
[11] = target: T1, Cy5 acceptor-labelled Sulfolobus solfataricus PCNA heterotrimer (PCNA1 N131C-Cy5, PCNA2, PCNA3) (Sulfolobus solfataricus, UniProt P57766 1-249; Q97Z84 1-245; P57765 1-244, N131C, Cy5-maleimide on the single cysteine of N131C); test: FRET or BRET; ensemble inter-molecular FRET between Cy3-labelled double-flap DNA and Cy5-labelled PCNA; PCNA-Cy5 titrated, DNA pre-equilibrated with 5 uM Fen1; conditions: both partners purified
T1 construct: PCNA1 subunit, Sulfolobus solfataricus, with the point mutation N131C; PCNA2 subunit, Sulfolobus solfataricus, unlabelled; PCNA3 subunit, Sulfolobus solfataricus, unlabelled; Labelling yield about 80%; also called PCNA-Cy5; acceptor-labelled PCNA; copies: + +
T1 sequence (looked up) 1: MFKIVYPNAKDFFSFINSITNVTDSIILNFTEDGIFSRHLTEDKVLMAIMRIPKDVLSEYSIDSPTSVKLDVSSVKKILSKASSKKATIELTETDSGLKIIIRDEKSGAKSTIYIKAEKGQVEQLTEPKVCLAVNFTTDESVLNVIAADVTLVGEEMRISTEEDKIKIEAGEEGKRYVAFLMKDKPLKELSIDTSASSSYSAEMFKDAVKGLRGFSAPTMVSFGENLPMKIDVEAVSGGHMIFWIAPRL
T1 sequence (looked up) 2: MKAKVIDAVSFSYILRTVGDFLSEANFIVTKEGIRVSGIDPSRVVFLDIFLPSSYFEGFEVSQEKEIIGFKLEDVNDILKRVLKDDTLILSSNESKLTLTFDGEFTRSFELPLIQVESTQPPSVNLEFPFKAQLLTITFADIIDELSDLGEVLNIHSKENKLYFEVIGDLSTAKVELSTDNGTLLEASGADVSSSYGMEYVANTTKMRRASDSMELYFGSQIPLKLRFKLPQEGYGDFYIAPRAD
T1 sequence (looked up) 3: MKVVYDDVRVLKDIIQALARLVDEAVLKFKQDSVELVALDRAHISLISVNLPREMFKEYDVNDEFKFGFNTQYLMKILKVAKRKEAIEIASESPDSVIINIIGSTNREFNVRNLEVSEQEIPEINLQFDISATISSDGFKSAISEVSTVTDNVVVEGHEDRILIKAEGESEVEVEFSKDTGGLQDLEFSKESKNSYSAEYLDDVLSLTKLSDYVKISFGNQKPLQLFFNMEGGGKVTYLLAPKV

[12] = target: T2, Sulfolobus solfataricus PCNA heterotrimer (PCNA1, PCNA2, PCNA3) (Sulfolobus solfataricus, UniProt P57766 1-249; Q97Z84 1-245; P57765 1-244); test: other fluorescence titration; protein-induced fluorescence enhancement (PIFE) of Cy3 on the 3F-duplex of a double-flap DNA; PCNA or PCNA12 titrated into DNA pre-incubated with 5 uM Fen1, 10 mM Ca2+; 30 mM HEPES pH 7.6, 40 mM KCl, 5% glycerol, 0.1 mg/ml BSA, 20 C; conditions: both partners purified
T2 construct: PCNA1 subunit of the heterotrimeric PCNA, Sulfolobus solfataricus; PCNA2 subunit of the heterotrimeric PCNA, Sulfolobus solfataricus; PCNA3 subunit of the heterotrimeric PCNA, Sulfolobus solfataricus; also called heterotrimeric PCNA; sliding clamp; copies: + +
T2 sequence (looked up) 1: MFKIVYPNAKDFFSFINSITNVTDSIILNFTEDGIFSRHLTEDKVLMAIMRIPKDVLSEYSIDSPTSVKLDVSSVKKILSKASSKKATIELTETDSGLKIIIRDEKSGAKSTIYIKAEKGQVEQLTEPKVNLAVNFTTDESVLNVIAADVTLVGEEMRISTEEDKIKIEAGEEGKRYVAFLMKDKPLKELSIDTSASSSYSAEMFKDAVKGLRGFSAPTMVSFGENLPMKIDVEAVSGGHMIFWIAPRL
T2 sequence (looked up) 2: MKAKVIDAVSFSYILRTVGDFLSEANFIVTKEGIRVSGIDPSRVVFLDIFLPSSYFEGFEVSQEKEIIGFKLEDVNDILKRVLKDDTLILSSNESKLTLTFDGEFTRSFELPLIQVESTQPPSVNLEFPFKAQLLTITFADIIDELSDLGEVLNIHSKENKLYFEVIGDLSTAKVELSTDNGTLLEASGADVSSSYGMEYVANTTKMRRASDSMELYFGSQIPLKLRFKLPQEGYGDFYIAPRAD
T2 sequence (looked up) 3: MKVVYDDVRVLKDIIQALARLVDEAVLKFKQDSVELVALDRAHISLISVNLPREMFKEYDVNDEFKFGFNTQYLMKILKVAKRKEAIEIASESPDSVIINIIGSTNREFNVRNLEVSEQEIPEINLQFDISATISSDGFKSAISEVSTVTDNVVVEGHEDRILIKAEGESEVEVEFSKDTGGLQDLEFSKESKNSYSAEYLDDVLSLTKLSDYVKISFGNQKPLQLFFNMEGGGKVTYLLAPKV

[13] = target: T3, Sulfolobus solfataricus PCNA1-PCNA2 heterodimer (PCNA12) (Sulfolobus solfataricus, UniProt P57766 1-249; Q97Z84 1-245); test: as above; conditions: both partners purified
T3 construct: PCNA1 subunit, Sulfolobus solfataricus; PCNA2 subunit, Sulfolobus solfataricus; also called PCNA12 complex
T3 sequence (looked up) 1: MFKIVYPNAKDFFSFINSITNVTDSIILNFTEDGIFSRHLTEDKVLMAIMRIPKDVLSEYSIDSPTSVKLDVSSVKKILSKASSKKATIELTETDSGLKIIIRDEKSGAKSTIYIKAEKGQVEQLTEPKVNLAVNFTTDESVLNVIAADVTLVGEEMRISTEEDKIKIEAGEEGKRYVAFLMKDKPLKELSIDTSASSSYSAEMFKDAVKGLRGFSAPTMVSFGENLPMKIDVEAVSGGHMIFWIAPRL
T3 sequence (looked up) 2: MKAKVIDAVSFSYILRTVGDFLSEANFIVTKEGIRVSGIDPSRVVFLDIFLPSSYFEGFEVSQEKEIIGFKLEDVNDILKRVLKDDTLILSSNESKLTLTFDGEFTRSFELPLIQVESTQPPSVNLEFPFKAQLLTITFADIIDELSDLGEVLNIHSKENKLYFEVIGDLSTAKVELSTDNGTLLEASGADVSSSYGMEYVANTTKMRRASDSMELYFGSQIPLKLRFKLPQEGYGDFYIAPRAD

Molecule: Flap-23 double flap, single-molecule, Cy3/Cy5, biotin
Kd [1]: 23 nM | Kd [2]: 1.6 nM

Molecule: Flap-12/23/13 double flap (global fit of three labelled versions)
Kd [3]: 14 nM | Kd [4]: 3 nM

Molecule: Double flap, Cy3 in 3F-duplex
Kd [5]: 160 nM | Kd [6]: 360 nM | Kd [7]: 117 nM

Molecule: 5'-flap substrate lacking the 3' extrahelical nucleotide
Kd [8]: > 10000 nM | Kd [9]: 700 nM

Molecule: PCNA (from UniProt P57766)
Kd [10]: 210 nM

Kd [11]: 117 ± 34 nM | Kd [12]: 160 ± 14 nM | Kd [13]: 360 ± 30 nM
B1: Sulfolobus solfataricus Flap endonuclease 1 (Fen1) (enzyme, UniProt Q980U8 1-349, looked up)
chain: MDLADLVKDVKRELSFSELKGKRVSIDGYNALYQFLAAIRQPDGTPLMDSQGRVTSHLSGLFYRTINILEEGVIPIYVFDGKPPEQKSEELERRRKAKEEAERKLERAKSEGKIEELRKYSQAILRLSNIMVEESKKLLRAMGIPIVQAPSEGEAEAAYLNKLGLSWAAASQDYDAILFGAKRLVRNLTITGKRKLPNKDVYVEIKPELIETEILLKKLGITREQLIDIGILIGTDYNPDGIRGIGPERALKIIKKYGKIEKAMEYGEISKKDINFNIDEIRGLFLNPQVVKPEEALDLNEPNGEDIINILVYEHNFSEERVKNGIERLTKAIKEAKGASRQTGLDRWF
notes: Flap endonuclease 1 (Fen1), Sulfolobus solfataricus
